The text below walks through data of the supplement of paper PMC12764529.

± gives the half width of the 95% confidence interval. Some results are limits rather than exact numbers.

The nature of data set [1]: folding stability dG unfold (combined trypsin and chymotrypsin); higher = more stable. In a few lines:
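How resistant each design was to proteolysis was captured as K50, inferred by Bayesian fitting of sequencing counts. Unfolding free energy was then derived relative to a sequence-predicted unfolded-state K50 and a shared folded-state K50, per protease or combined. Digestion used trypsin and chymotrypsin at 11 threefold-diluted concentrations plus a no-protease condition, on mini-proteins under 80 residues without cysteine in a PA-tagged cDNA display construct. Designs were kept only when AlphaFold2 dimer inter-PAE was above 15.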

The nature of data set [2]: folding stability dG unfold from trypsin proteolysis; higher = more stable. The protocol:
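Folding stability of de novo designed mini-proteins (<80 aa, no Cys; designed by TrROS, TrMRF, ProteinMPNN and the joint model) was measured by cDNA display proteolysis with trypsin and chymotrypsin. Each protease was used at 11 concentrations in a threefold dilution series plus a no-protease condition. K50 was inferred by Bayesian fitting of sequencing counts, and dG unfold was derived against a sequence-predicted unfolded-state K50 (Tsuboyama et al. method). Sequences shown include variable-length N-terminal GS-type padding (SAGGSAGG...) inside a display construct carrying a PA tag. Rows were kept only if the AF2 dimer inter-PAE was >15, to exclude likely homo-oligomers.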

Regarding “SAGGSAGGSTTSTIKVTLENPSGSPLKLETATITTDPVAGTSTLTVTVPGTGETKFVGTNPNLSSAGGSAGG [r6_330_JUSTAS]”, the entries for the “folding stability dG unfold” value in data set [1] and in data set [2] were 0.107 ± 0.061 kcal/mol and 0.713 ± 0.052 kcal/mol, respectively.
The corresponding values for “SAGGSAGGSVKVTTEPLPNGERLVTVTAYLKSKPYPVLMPYPASATPEQVKETALRIEKELEKSAGGSAGGS [r12_69_TrMRF]” are under -1 kcal/mol and -0.999 ± 0.49 kcal/mol.
The corresponding values for “SAGGSAGGSYPIFDKEKGKLDPGPPEKELDVVIKVKKDGKWYPIDLKLSKSDLIRFVKELEKDSAGGSAGGS [r20_148_TrMRF]” are under -1 kcal/mol and -0.698 ± 0.24 kcal/mol.
The corresponding values for “SAGGSAGGSYSKNGQPPPTREIEIIILVEDPEEAENKADELSEMLGMPIKVEIIPEEDAKKMISAGGSAGGS [r12_766_TrROS]” are 0.27 ± 0.86 kcal/mol and 0.0437 ± 0.24 kcal/mol.
With “SAGGSAGGTIIDRIKELFGPGMKINIQEHPSEPYYRIRIKNPGFGQKREIHVPPDSIEDILDQISAGGSAGG [r6_612_TrROS]”, the entries for the “folding stability dG unfold” value in data set [1] and in data set [2] were 0.202 ± 0.36 kcal/mol and 0.538 ± 0.33 kcal/mol, respectively.
In the same order, the values of “SAGGSAIRIEPDEDGYIKIEKPSPPGEPASELIEELKDFFPNWEVETHPHPNGRAEIIFRIPPDQFSAGGSA [r15_1047_TrROS]” are -0.132 ± 0.15 kcal/mol and 0.244 ± 0.077 kcal/mol.
The corresponding values for “SAGGSAKPVEVELPDGIEIYYPKDRMYIEINLPNGRPIKIPFEFDDPNDPERALDKARDLVKKLPWSAGGSA [r15_748_TrROS]” are under -1 kcal/mol and -0.577 ± 0.41 kcal/mol.
Turning to “SAGGSAMDAEQIEEKIKEAMQDHGHEVEVEVQRDPNNTVVIQVESGPGMDKDRIQEALQEKFGVKISAGGSA [r15_807_TrROS]”, the “folding stability dG unfold” value in data set [1] was under -1 kcal/mol; in data set [2] it was -0.793 ± 0.1 kcal/mol.
In the same order, the values of “SAGGSAMKVATLKVGGVDHTVEITPLPDGSYPVTTTAEEGGETTTTVVPKSEVKKLEDLPPEYRLLSAGGSA [r15_629_JUSTAS]” are under -1 kcal/mol and -0.414 ± 0.49 kcal/mol.
As to “SAGGSAMKVKSIHWQRHGDRPMVRIKIQNPDGKKRERNIPMDDPEKFKKEAKELAKEGKIKEIEPYSAGGSA [r15_575_TrROS]”, the “folding stability dG unfold” value was under -1 kcal/mol in data set [1] and -0.42 ± 0.81 kcal/mol in data set [2].
Turning to “SAGGSAMPKPKVEILKVEKTEDGTVKVPVKVEVTFEDGSKETVPATVTFEVEEGKPLGPEALKEAISAGGSA [r15_836_TrMRF]”, the figures for the “folding stability dG unfold” value in data set [1] and in data set [2] were under -1 kcal/mol and -0.377 ± 0.11 kcal/mol, respectively.
In the same order, the values of “SAGGSAMTLEELKGMPIRSWWPGGQKIEMPIKKIDLNDPMFEIKFGGEPIKIPFNHPMRIEIQPPKSAGGSA [r15_355_TrROS]” are -0.64 ± 0.27 kcal/mol and 0.0637 ± 0.052 kcal/mol.
In the same order, the values of “SAGGSANMREVEIPMTPNDLEEALEEVEDAPPGRNVSVNMTNPEEGKPYPIKIRVNENGKLTEIEFSAGGSA [r15_228_TrROS]” are -0.179 ± 0.27 kcal/mol and 0.501 ± 0.077 kcal/mol.
In the same order, the values of “SAGGSAPPASAPGVVEEVEAEVPVDVPEVARLTGRPPRPGERYRVRVVRRVYPDGRVETDVYIEPGSAGGSA [r15_91_TrMRF]” are -0.252 ± 0.14 kcal/mol and 0.328 ± 0.064 kcal/mol.
On to “SAGGSASPEELAERVAKEIEEKYPVEVTEIRVEEVSEDEVVLSMTYRKPLPGGETEVENRTVTLPQSAGGSA [r15_276_JUSTAS]”, for which the “folding stability dG unfold” value is -0.404 ± 0.46 kcal/mol in data set [1] and 0.162 ± 0.26 kcal/mol in data set [2].
In the same order, the values of “SAGGSAVPKSDPVIRIKVKYPSNPQVITVPRSEIVEMEVGPPENIMTIKNPKTGKEYPATLLEILASAGGSA [r15_495_JUSTAS]” are under -1 kcal/mol and -0.531 ± 0.23 kcal/mol.
In the same order, the values of “SAGGSITLEIELPNGAKITVTIEYDEETGTVTIEAEITLPNGTVIRIKATINKDGTITIEKIEVFKPSAGGS [r16_213_TrROS_Hall]” are over 6 kcal/mol and 4.82 ± 0.69 kcal/mol.
As to “SAGGSLVTELIENNPEFQALLESGTTLKVTFPGGLSGEIEVKNKSPEEIEKAILARNPGPVEIEITGSAGGS [r16_655_JUSTAS]”, the “folding stability dG unfold” value in data set [1] is -0.192 ± 0.2 kcal/mol; in data set [2], 0.384 ± 0.11 kcal/mol.
The corresponding values for “SAGGSMEIPLGETIPIFFDDVIIEIEPETHEIHVIAEDSEKALELIKNLPFPIPAGEVKELSPEEFSAGGSA [r2_418_TrMRF]” are -0.364 ± 0.21 kcal/mol and 0.352 ± 0.042 kcal/mol.
Consider “SAGGSNNDNQPEPKVPYMEITINIPVNYNPNQSEEDRKRQVQEFIEELKDMYIPFPNGYPIRIDVMSAGGSA [r2_149_TrROS]”, for which the “folding stability dG unfold” value in data set [1] was -0.554 ± 0.49 kcal/mol; in data set [2], 0.149 ± 0.13 kcal/mol.
The corresponding values for “SAGGSNPGDPEQVPKVKIKITYPDNGKEFTIPVEELRNGPIEEAVSEIANEARERYPGHPLRIEPVSAGGSA [r2_392_TrROS]” are under -1 kcal/mol and -0.836 ± 0.41 kcal/mol.
For the sequence “SAGGSPYRIKFEFPNGPKFEFPVKITEIQPPNGNLYANITAQDDGKPHELMFPAPNIRPVEIEPPPSAGGSA [r2_319_TrROS]”, the “folding stability dG unfold” value in data set [1] is -0.414 ± 0.66 kcal/mol; in data set [2], -0.796 ± 0.69 kcal/mol.
In the same order, the values of “SAGGSSLDEKIKQAVEEGKVPTEIEFTDPSNDLKTRYLVTVKSVLPGSYEVEVEEEIFDPDNPVLVSAGGSA [r2_420_JUSTAS]” are under -1 kcal/mol and -1.07 ± 0.27 kcal/mol.
The corresponding values for “SAGGSTLDELIDAIKKAAKKGKEPVEIEFPNPNGGMIKINPDGSIETFPPNGEPQRFKIPLDDLKISAGGSA [r2_97_TrROS]” are -0.781 ± 0.25 kcal/mol and -0.568 ± 0.11 kcal/mol.
Turning to “SAGGSYRIEIEDIDPKPQWRPNPNGEWEPRPTLTIEVKIERNPDEMPEKEKQKIEEQAERIAKKFFSAGGSA [r2_40_TrROS]”, the “folding stability dG unfold” value is under -1 kcal/mol in data set [1] and -0.436 ± 0.4 kcal/mol in data set [2].
As to “SAGGTTTESVSEDSTDNGEYVTTTTTTDPVGPSTVVTTTTTTTPADGTTTTTTTTYTVPPGAPASAVVSAGG [r13_3_JUSTAS]”, the “folding stability dG unfold” value in data set [1] was -0.00338 ± 0.16 kcal/mol; in data set [2] it was 0.354 ± 0.052 kcal/mol.
The corresponding values for “SAGGTVKVTVEVRDEETGETVTVEVEVEPAPAPPVVVLPAEDLEKLRELGFPENAVLDEETNELVIFSAGGS [r16_194_TrROS_Hall]” are -0.204 ± 0.24 kcal/mol and 0.537 ± 0.085 kcal/mol.
In the same order, the values of “SAGMDPNEKREVVVELEFEVPDPSNPEGGSVPIRVTLKATGKGTEEEAEELKKKAEEEAREKVEKGELLSAG [r5_532_JUSTAS]” are -0.287 ± 0.56 kcal/mol and 0.687 ± 0.15 kcal/mol.
In the same order, the values of “SAGMEVTVTDPIPLDPTPDGVPDVKPELVEERAKAAGFTDEIESVDTTPKPDSVTTTVTHPTATLTAGSAGG [r19_398_JUSTAS]” are under -1 kcal/mol and -0.201 ± 0.082 kcal/mol.
Take “SAGMKKEKPKETVTITLKNGKKIEIVKTDDSIKIFITDKNGKKRELTVKGLSLEEILKKLEELGFEVEPSAG [r5_613_TrROS_Hall]”: the results for the “folding stability dG unfold” value in data set [1] and in data set [2] were 0.353 ± 0.2 kcal/mol and 0.776 ± 0.082 kcal/mol, respectively.
In the same order, the values of “SAGMKVEVVERKGPDGRLVRVVKETTITPVPGPAVAEANGAPLTPEDEKVVTVTTTVLDPEGKVLETVDSAG [r5_128_JUSTAS]” are under -1 kcal/mol and -0.903 ± 0.43 kcal/mol.
The corresponding values for “SAGMSTSGPIFVPEGPPAIYISYPKPNVKFVVPVSEGIEAVKKRAEEPGLNPVIIKVVETPPGVPVTLSAGG [r19_386_JUSTAS]” are under -1 kcal/mol and -0.988 ± 0.34 kcal/mol.
In the same order, the values of “SAGMVVKVTVITEDEKPIEVYLPVKDPEKYPPEKVEEAAKEIAKKLEEEGIPVKKVSVEPIAPKPGLLSAGG [r19_334_TrMRF]” are 0.0993 ± 0.4 kcal/mol and 0.544 ± 0.087 kcal/mol.
Regarding “SAGMYIEGSLSSPEEAPVVAVPFPGPEKLLLAPLAVGLEEIREALEEEGFEPVEIRVAETEPGVPLDLSAGG [r19_386_TrMRF]”, the “folding stability dG unfold” value in data set [1] was -0.694 ± 0.24 kcal/mol; in data set [2] it was 0.211 ± 0.024 kcal/mol.
In the same order, the values of “SAGPGNWFIMIFINIEIKLETVPDPDGKPWLKITISIKFFVMIVRLPPDGKARMEMFPITIKFTFTIPLSAG [r5_428_TrROS]” are over 6 kcal/mol and 4.17 ± 0.29 kcal/mol.
The corresponding values for “SAGWKLKIESPNGAEIEINPESGMIDVKNPDNGQPWSVMIPPENPGEINIFNPGDGEPLQPFKIDEIEPSAG [r5_761_TrROS]” are 0.111 ± 0.41 kcal/mol and 0.337 ± 0.23 kcal/mol.
The corresponding values for “SAIRGLPPEEIEKAVKKLAKEGNVEIEIKPFTMRVYPPDGGQQPYQYYQIEIYNPDNGKPIEDKIKKLFSAG [r14_628_TrROS]” are under -1 kcal/mol and 0.167 ± 0.25 kcal/mol.
Consider “SAITIMIPPNQTLEEIADELGFPGIKDVKHEPFEPGYYPATFEFPGDPDREIEIMFNPEPDWMMVEVEDSAG [r14_713_TrROS]”, for which the “folding stability dG unfold” value in data set [1] is 0.0271 ± 0.13 kcal/mol; in data set [2], 0.809 ± 0.054 kcal/mol.
In the same order, the values of “SAMEVTVTPLPDGTTRVTLPDGVEITHPAPGTGEPVLVEVTEVPGTGTYRITIRSPAGGEELRELLVPVSAG [r14_975_JUSTAS]” are 0.443 ± 0.091 kcal/mol and 0.986 ± 0.03 kcal/mol.
In the same order, the values of “SAMLTTLETTTTTSDSLTVTTSLSLLPDGSLVTTTTVIDTSGNVLSSTTTVEPGPPPVTPENIALMVRLSAG [r14_171_JUSTAS]” are 0.125 ± 0.29 kcal/mol and 0.298 ± 0.12 kcal/mol.
The corresponding values for “SLEIAKELGFPIKRFEPTEMDPDNGRQKWEAYIPMPNRTVRVDIDIRYEPDPNGKRQPKIQIDSIEFMPPSA [r9_613_TrROS]” are -0.242 ± 0.23 kcal/mol and 0.392 ± 0.12 kcal/mol.
Turning to “SMNVKPFSSTISNPAVTVTTPITQPSSGEGTATLTIHRPESVTTTTHPVTDLQALIDSHAAGGVSLTGTSSA [r9_384_JUSTAS]”, the “folding stability dG unfold” value in data set [1] was under -1 kcal/mol; in data set [2] it was -0.377 ± 0.095 kcal/mol.
